# From patent US20240100176A1 (Eli Lilly, published 2024)
# Assays:
# Test in all cases: capture ELISA: Ab1 on anti-human IgG Fc, His-tagged receptor at 1 µg/mL, anti-His HRP
# [1] = biological target: T1, hexahistidine tagged human IL-4Rα ECD R148D (human, UniProt P24394 26-232)
# T1 construct: not shown: hexahistidine tag
# Description: (§1) Example 2d. […] Briefly, thirty surface amino acid residue substitutions were introduced individually into hexahistidine tagged human IL-4Rα extra cellular domain (ECD) as follows: K2D, E6R, K22D, P26R, T31R, F41A, L42G, L43G, E45R, E52R, G56R, D66R, A71R, Q82G, K87D, E94R, H107A, D108R, P124R, D125R, D143R, R148D, L155R, R160D, S164R, S168R, Q181R, P192R, K195D, or H197G. Each mutant protein having a single amino acid residue substitution as described above was transiently expressed in CHO cells and purified using standard immobilized metal affinity chromatography techniques. […] The plates were then washed 3 times with PBST and the exemplified human IL-4Rα antibody was added to the wells at a final concentration of 1 μg/mL in PBS-casein and incubated for 1 hour at room temperature. The plates were washed 3 times with PBST, the IL-4Rα mutant proteins were serially diluted 5-fold from 1 μg/mL for 3 points. in PBS-casein and added to the plate at 50 μL/well and incubated for 1 hour at room temperature. The plates were washed 3 times with PBST and a 1000-fold dilution of anti-histidine tag antibody HRP conjugate (R&D Systems, Cat. #MAB050H) in PBS-casein was added and incubated for 45 minutes at room temperature. The plates were washed 3 times, TMB substrate (Pierce, Cat. #34028) was added per manufacturer instructions, the reaction was quenched with H₂SO₄, and absorbance was read at 450 nm on an ELISA plate reader.
# [2] = biological target: T2, hexahistidine tagged human IL-4Rα ECD E94R (human, UniProt P24394 26-232)
# T2 construct: not shown: hexahistidine tag
# T2 sequence (P24394 26-232 E119R): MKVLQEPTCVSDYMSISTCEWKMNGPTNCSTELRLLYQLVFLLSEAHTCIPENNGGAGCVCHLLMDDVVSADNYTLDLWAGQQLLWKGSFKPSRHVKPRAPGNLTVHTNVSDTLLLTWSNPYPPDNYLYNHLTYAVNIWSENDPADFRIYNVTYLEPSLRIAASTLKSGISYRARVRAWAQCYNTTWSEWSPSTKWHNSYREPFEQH
# Description: as §1
# [3] = biological target: T3, hexahistidine tagged human IL-4Rα ECD P124R (human, UniProt P24394 26-232)
# T3 construct: not shown: hexahistidine tag
# T3 sequence (P24394 26-232 P149R): as the sequence (P24394 26-232 E119R) above, with R94E, P124R counted along it
# Description: as §1
# [4] = biological target: T4, hexahistidine tagged human IL-4Rα ECD K195D (human, UniProt P24394 26-232)
# T4 construct: not shown: hexahistidine tag
# Description: as §1
# [5] = biological target: T5, hexahistidine tagged human IL-4Rα ECD L42G (human, UniProt P24394 26-232)
# T5 construct: not shown: hexahistidine tag
# T5 sequence (P24394 26-232 L67G): as the sequence (P24394 26-232 E119R) above, with L42G, R94E counted along it
# Description: as §1
# [6] = biological target: T6, hexahistidine tagged human IL-4Rα ECD E45R (human, UniProt P24394 26-232)
# T6 construct: not shown: hexahistidine tag
# T6 sequence (P24394 26-232 E70R): as the sequence (P24394 26-232 E119R) above, with E45R, R94E counted along it
# Description: as §1
# [7] = biological target: T7, hexahistidine tagged human IL-4Rα ECD K87D (human, UniProt P24394 26-232)
# T7 construct: not shown: hexahistidine tag
# Description: as §1
# [8] = biological target: T8, hexahistidine tagged human IL-4Rα ECD K22D (human, UniProt P24394 26-232)
# T8 construct: not shown: hexahistidine tag
# T8 sequence (P24394 26-232 K47D): as the sequence (P24394 26-232 E119R) above, with K22D, R94E counted along it
# Description: as §1
# [9] = biological target: T9, hexahistidine tagged human IL-4Rα ECD Q181R (human, UniProt P24394 26-232)
# T9 construct: not shown: hexahistidine tag
# T9 sequence (P24394 26-232 Q206R): as the sequence (P24394 26-232 E119R) above, with R94E, Q181R counted along it
# Description: as §1
# [10] = biological target: T10, hexahistidine tagged human IL-4Rα ECD T31R (human, UniProt P24394 26-232)
# T10 construct: not shown: hexahistidine tag
# T10 sequence (P24394 26-232 T56R): as the sequence (P24394 26-232 E119R) above, with T31R, R94E counted along it
# Description: as §1
# [11] = biological target: T11, hexahistidine tagged human IL-4Rα ECD K2D (human, UniProt P24394 26-232)
# T11 construct: not shown: hexahistidine tag
# T11 sequence (P24394 other isoform, or with tags, fused parts or gaps): as the sequence (P24394 26-232 E119R) above, with K2D, R94E counted along it
# Description: as §1
# [12] = biological target: T12, hexahistidine tagged human IL-4Rα ECD D125R (human, UniProt P24394 26-232)
# T12 construct: not shown: hexahistidine tag
# T12 sequence (P24394 26-232 D150R): as the sequence (P24394 26-232 E119R) above, with R94E, D125R counted along it
# Description: as §1
# [13] = biological target: T13, hexahistidine tagged human IL-4Rα ECD P26R (human, UniProt P24394 26-232)
# T13 construct: not shown: hexahistidine tag
# Description: as §1
# [14] = biological target: T14, hexahistidine tagged human IL-4Rα ECD E52R (human, UniProt P24394 26-232)
# T14 construct: not shown: hexahistidine tag
# T14 sequence (P24394 26-232 E77R): as the sequence (P24394 26-232 E119R) above, with E52R, R94E counted along it
# Description: as §1
# [15] = biological target: T15, hexahistidine tagged human IL-4Rα ECD S164R (human, UniProt P24394 26-232)
# T15 construct: not shown: hexahistidine tag
# Description: as §1
# [16] = biological target: T16, hexahistidine tagged human IL-4Rα ECD H107A (human, UniProt P24394 26-232)
# T16 construct: not shown: hexahistidine tag
# T16 sequence (P24394 26-232 H132A): as the sequence (P24394 26-232 E119R) above, with R94E, H107A counted along it
# Description: as §1
# [17] = biological target: T17, hexahistidine tagged human IL-4Rα ECD A71R (human, UniProt P24394 26-232)
# T17 construct: not shown: hexahistidine tag
# T17 sequence (P24394 26-232 A96R): as the sequence (P24394 26-232 E119R) above, with A71R, R94E counted along it
# Description: as §1
# [18] = biological target: T18, hexahistidine tagged human IL-4Rα ECD T108R (human, UniProt P24394 26-232)
# T18 construct: also called D108R; not shown: hexahistidine tag
# Description: as §1
# T1 sequence (P24394 26-232 R173D): as the sequence (P24394 26-232 E119R) above, with R94E, R148D counted along it
binder,measurement,setting,value
"anti-human IL-4Rα antibody Ab1 (antibody, human IgG4 S228P, kappa, human kappa light chain; also called anti-human IL-4Rα Ab1; unconjugated Ab1) heavy: QVQLVESGGGLVQPGGSLRLSCVASGFTFSHSSMNWVRQAPGKGLEWVSYISRATGAVYYADSVKGRFTISRDNAKNSLYLQMNSLRDEDTAVYYCAREPVFDYWGQGTLVTVSSASTKGPCVFPLAPCSRSTSESTAALGCLVKDYFPEPVTVSWNSGALTSGVHTFPAVLQSSGLYSLSSVVTVPSSSLGTKTYTCNVDHKPSNTKVDKRVESKYGPPCPPCPAPEFLGGPSVFLFPPKPKDTLMISRTPEVTCVVVDVSQEDPEVKFNWYVDGVEVHNAKTKPREEQFNSTYRVVSVLTVLHQDWLNGKEYKCKVSNKGLPSSIEKTISKAKGQPREPQVYTLPPSREEMTKNQVSLTCLVKGFYPSDICVEWESNGQPENNYKTTPPVLDSDGSFFLYSRLTVDKSRWQQGNVFSCSVMHEALHNHYTQKSLSLSLG light: DIQMTQSPSAMSASVGDRVTITCRASQDISNYLAWFQQKPGKVPTRLIYAASSLQSGVPSRFSGSGSGTEFTLTISSLQPEDFATYYCLQWSSYPRTFGQGTKVEIKRTVAAPSVFIFPPSDEQLKSGTASVVCLLNNFYPREAKVQWKVDNALQSGNSQESVTEQDSKDSTYSLSSTLTLSKADYEKHKVYACEVTHQGLSSPVTKSFNRGEC",ELISA (OD450),[1],1.76 OD450
same,ELISA (OD450),[2],1.73 OD450
same,ELISA (OD450),[3],1.84 OD450
same,ELISA (OD450),[4],1.91 OD450
same,ELISA (OD450),[5],1.71 OD450
same,ELISA (OD450),[6],1.7 OD450
same,ELISA (OD450),[7],1.75 OD450
same,ELISA (OD450),[8],1.67 OD450
same,ELISA (OD450),[9],1.91 OD450
same,ELISA (OD450),[10],1.64 OD450
same,ELISA (OD450),[11],2.05 OD450
same,ELISA (OD450),[12],1.79 OD450
same,ELISA (OD450),[13],1.66 OD450
same,ELISA (OD450),[14],1.73 OD450
same,ELISA (OD450),[15],1.92 OD450
same,ELISA (OD450),[16],1.89 OD450
same,ELISA (OD450),[17],1.7 OD450
same,ELISA (OD450),[18],1.88 OD450
